This is an account of results in the supplement of paper PMC10567573.

Sequences and labels used below:
B1: APBB1IP (parent)
chain: PPEPLSQVSMWDQRWQDHQPLLPI
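Also: lentivirally expressed fusions sorted by FACS into six bins by GFP to DsRed ratio, PSI derived from sequencing read proportions per bin multiplied by bin number.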

In this series the parent is B1. The experiment in a line: protein stability index of a GFP-peptide fusion (GPS, HEK-293T) (PSI 1-6); higher = more stable. The following applies: c terminus: a fixed tail appended.
In the case of PPEPLSQVSMWDQRWQDHQTLLPI, the protein stability index was determined as 2.84.
PPEPLSQVSMWDQRWQDHQILLPI: the protein stability index was 2.77.
PPEPLSQVSMWDQRWQDHQQLLPI: the protein stability index is 3.26.
Consider PPEPLSQVSMWDQRWQDHQLLLPI, for which the protein stability index turned out to be 2.61.
As to PPEPLSQVSMWDQRWQDHQFLLPI, the protein stability index was 2.37.
To PPEPLSQVSMWDQRWQDHQGLLPI belongs 3.38; to PPEPLSQVSMWDQRWQDHQYLLPI, 2.33; to PPEPLSQVSMWDQRWQDHQALLPI, 2.75.
On to PPEPLSQVSMWDQRWQDHQHLLPI, for which the protein stability index stood at 3.23.
The result for PPEPLSQVSMWDQRWQDHQNLLPI reads 3.14; that for PPEPLSQVSQWDQRWQDHQPLLPI, 3.2; that for PPEPLSQVSVWDQRWQDHQPLLPI, 3.36.
To PPEPLSQVSRWDQRWQDHQPLLPI belongs 3.37.
To PPEPLSQVSDWDQRWQDHQPLLPI belongs 4.12; to PPEPLSQVSFWDQRWQDHQPLLPI, 2.94.
For PPEPLSQVSTWDQRWQDHQPLLPI, the protein stability index is 2.87.
As for EPEPLSQVSMWDQRWQDHQPLLPI, the protein stability index stood at 2.84.
To YPEPLSQVSMWDQRWQDHQPLLPI belongs 1.72; to MPEPLSQVSMWDQRWQDHQPLLPI, 3.28; to VPEPLSQVSMWDQRWQDHQPLLPI, 2.23.
The result for RPEPLSQVSMWDQRWQDHQPLLPI reads 2.54; that for TPEPLSQVSMWDQRWQDHQPLLPI, 3.37; that for SPEPLSQVSMWDQRWQDHQPLLPI, 2.87.
As to PPEPLSQVSMWDQRWADHQPLLPI, the protein stability index is 2.23.
For the variant PPEPLSQVSMWDQRWIDHQPLLPI, the protein stability index came to 2.72.
To PPEPLSQVSMWDQRWHDHQPLLPI belongs 2.53.
To PPEPLSQVSMWDQRWVDHQPLLPI belongs 2.7; to PPEPLSQVSMWDQRWWDHQPLLPI, 2.73.
For the variant PPEPLSQVSMWDQRWCDHQPLLPI, the protein stability index worked out at 2.6.
To PPEPLSQVSMWDQRWDDHQPLLPI belongs 3.52; to PPEPLSQVSMWDQRWGDHQPLLPI, 2.98.
To PHEPLSQVSMWDQRWQDHQPLLPI belongs 2.65; to PLEPLSQVSMWDQRWQDHQPLLPI, 2.09; to PKEPLSQVSMWDQRWQDHQPLLPI, 2.83.
As to PFEPLSQVSMWDQRWQDHQPLLPI, the protein stability index came to 1.92.
The result for PAEPLSQVSMWDQRWQDHQPLLPI reads 2.71; that for PNEPLSQVSMWDQRWQDHQPLLPI, 3.09; that for PQEPLSQVSMWDQRWQDHQPLLPI, 2.52.
For PGEPLSQVSMWDQRWQDHQPLLPI, the protein stability index came to 2.58.
With PYEPLSQVSMWDQRWQDHQPLLPI, the protein stability index came out at 2.46.
To PDEPLSQVSMWDQRWQDHQPLLPI belongs 2.95; to PIEPLSQVSMWDQRWQDHQPLLPI, 2.42.
As for PPEPLSQESMWDQRWQDHQPLLPI, the protein stability index turned out to be 3.48.
For the variant PPEPLSQHSMWDQRWQDHQPLLPI, the protein stability index was determined as 3.21.
Turning to PPEPLSQDSMWDQRWQDHQPLLPI, the protein stability index was found to be 4.03.
To PPEPLSQYSMWDQRWQDHQPLLPI belongs 2.57; to PPEPLSQTSMWDQRWQDHQPLLPI, 2.9; to PPEPLSQRSMWDQRWQDHQPLLPI, 2.83.
For the variant PPEPLSQSSMWDQRWQDHQPLLPI, the protein stability index is 3.52.
To PPEPLSQVSMWDQRWQDMQPLLPI belongs 2.71.
To PPEPLSQVSMWDQRWQDGQPLLPI belongs 3.55; to PPEPLSQVSMWDQRWQDEQPLLPI, 4.14; to PPEPLSQVSMWDQRWQDYQPLLPI, 3.2.
To PPEPLSQVSMWDQRWQDLQPLLPI belongs 3.09.
On to PPEPLSQVSMWDQRWQDCQPLLPI, for which the protein stability index worked out at 3.12.
As for PPEPLSQVSMWDQRWQDQQPLLPI, the protein stability index was 3.01.
To PPEPLSQVSMWDQRWQDWQPLLPI belongs 3.02.
PPEPLSQVSMWPQRWQDHQPLLPI: the protein stability index is 2.89.
In the case of PPEPLSQVSMWAQRWQDHQPLLPI, the protein stability index is 2.64.
Consider PPEPLSQVSMWNQRWQDHQPLLPI, for which the protein stability index came out at 2.82.
To PPEPLSQVSMWCQRWQDHQPLLPI belongs 2.34; to PPEPLSQVSMWFQRWQDHQPLLPI, 2.13.
The result for PPEPLSQVSMWEQRWQDHQPLLPI reads 2.64; that for PPEPLSQVSMWLQRWQDHQPLLPI, 2.22.
To PPEPLSQVSMWIQRWQDHQPLLPI belongs 2.48; to PPEPLSQVSMWDYRWQDHQPLLPI, 2.51; to PPEPLSQVSMWDIRWQDHQPLLPI, 2.72.
For PPEPLSQVSMWDWRWQDHQPLLPI, the protein stability index was 2.91.
As to PPEPLSQVSMWDPRWQDHQPLLPI, the protein stability index came to 2.77.
The result for PPEPLSQVSMWDFRWQDHQPLLPI reads 2.4.
As for PPEPLSQVSMWDQKWQDHQPLLPI, the protein stability index was found to be 3.06.
To PPEPLSQVSMWDQPWQDHQPLLPI belongs 2.9.
Regarding PPEPLSQVSMWDQAWQDHQPLLPI, the protein stability index was 2.75.
The result for PPEPLSQVSMWDQQWQDHQPLLPI reads 2.88.
The result for PPEPLSQVSMWDQGWQDHQPLLPI reads 3.98; that for PPWPLSQVSMWDQRWQDHQPLLPI, 2.32; that for PPQPLSQVSMWDQRWQDHQPLLPI, 2.77.
For the variant PPGPLSQVSMWDQRWQDHQPLLPI, the protein stability index was found to be 3.06.
For the variant PPRPLSQVSMWDQRWQDHQPLLPI, the protein stability index amounted to 3.18.
PPMPLSQVSMWDQRWQDHQPLLPI: the protein stability index came out at 2.94.
The result for PPLPLSQVSMWDQRWQDHQPLLPI reads 3.07; that for PPEPLSQVSMWDQRWQDHQPLDPI, 3.89; that for PPEPLSQVSMWDQRWQDHQPLMPI, 2.58.
The result for PPEPLSQVSMWDQRWQDHQPLNPI reads 3.55; that for PPEPLSQVSMWDQRWQDHQPLAPI, 3.4.
With PPEPLSQVSMWDQRWQDHQPLSPI, the protein stability index came to 3.55.
As to PPEPLSQVSMWDQRWQDHQPLQPI, the protein stability index worked out at 3.68.
PPEPLSQVSMWDQRWQDHQPLRPI: the protein stability index came to 3.54.
To PPEPLSQVSMWDQRWQDHQPLYPI belongs 2.44; to PPEMLSQVSMWDQRWQDHQPLLPI, 2.79.
With PPEALSQVSMWDQRWQDHQPLLPI, the protein stability index came to 3.05.
The result for PPESLSQVSMWDQRWQDHQPLLPI reads 2.61.
The result for PPETLSQVSMWDQRWQDHQPLLPI reads 3.1.
In the case of PPEDLSQVSMWDQRWQDHQPLLPI, the protein stability index worked out at 3.56.
